Measured values taken from patent US20150232576.

Target: T1, endothelial nitric oxide synthase (eNOS), purified, unphosphorylated (UniProt P29473)
T1 sequence: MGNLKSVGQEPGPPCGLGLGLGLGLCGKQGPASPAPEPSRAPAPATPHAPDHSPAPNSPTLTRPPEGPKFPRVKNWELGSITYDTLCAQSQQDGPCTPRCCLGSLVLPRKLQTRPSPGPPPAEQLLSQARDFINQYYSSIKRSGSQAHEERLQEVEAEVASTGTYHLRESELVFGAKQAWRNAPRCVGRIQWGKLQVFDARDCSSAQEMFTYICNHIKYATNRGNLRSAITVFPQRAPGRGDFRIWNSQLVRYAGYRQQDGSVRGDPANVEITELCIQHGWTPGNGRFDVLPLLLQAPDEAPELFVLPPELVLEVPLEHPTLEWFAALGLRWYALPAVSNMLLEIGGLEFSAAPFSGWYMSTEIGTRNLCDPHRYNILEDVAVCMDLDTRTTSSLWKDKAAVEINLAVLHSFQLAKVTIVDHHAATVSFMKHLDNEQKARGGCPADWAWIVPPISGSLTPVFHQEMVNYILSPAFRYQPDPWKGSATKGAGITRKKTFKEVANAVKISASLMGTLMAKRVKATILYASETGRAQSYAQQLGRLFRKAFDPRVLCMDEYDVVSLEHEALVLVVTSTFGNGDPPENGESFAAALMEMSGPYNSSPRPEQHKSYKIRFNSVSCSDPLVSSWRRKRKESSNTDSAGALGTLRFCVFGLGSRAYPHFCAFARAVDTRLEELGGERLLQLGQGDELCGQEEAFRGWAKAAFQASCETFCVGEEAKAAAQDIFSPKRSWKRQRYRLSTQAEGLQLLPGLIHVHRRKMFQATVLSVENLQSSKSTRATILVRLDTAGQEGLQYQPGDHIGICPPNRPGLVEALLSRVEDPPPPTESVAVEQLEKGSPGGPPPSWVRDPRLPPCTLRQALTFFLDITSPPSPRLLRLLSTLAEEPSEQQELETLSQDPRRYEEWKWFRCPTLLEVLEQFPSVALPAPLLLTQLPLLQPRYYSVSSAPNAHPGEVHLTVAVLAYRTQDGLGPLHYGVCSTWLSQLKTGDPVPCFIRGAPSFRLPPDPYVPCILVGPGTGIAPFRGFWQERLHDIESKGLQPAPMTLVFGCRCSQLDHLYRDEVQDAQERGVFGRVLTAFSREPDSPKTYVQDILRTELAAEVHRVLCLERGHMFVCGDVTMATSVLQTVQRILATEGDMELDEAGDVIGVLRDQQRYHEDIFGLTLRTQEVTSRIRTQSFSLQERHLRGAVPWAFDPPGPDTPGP

Substance: Phosphorylated His-p38 (p38 MAP kinase)
- NO production (hemoglobin capture assay): Weak inhibition of NO formation by 1 µM p38 in the presence of 0.6 µM CaM was observed; NO production was reduced by an average of 30%
